Data from PMC3177959.

Target: M3 muscarinic acetylcholine receptor labeled at its N terminus with ECFP (human) (UniProt P20309)
Assay: FRAP of the mobile partner with the other partner immobilised

Chain of UniProt P20309 (P20309 whole entry): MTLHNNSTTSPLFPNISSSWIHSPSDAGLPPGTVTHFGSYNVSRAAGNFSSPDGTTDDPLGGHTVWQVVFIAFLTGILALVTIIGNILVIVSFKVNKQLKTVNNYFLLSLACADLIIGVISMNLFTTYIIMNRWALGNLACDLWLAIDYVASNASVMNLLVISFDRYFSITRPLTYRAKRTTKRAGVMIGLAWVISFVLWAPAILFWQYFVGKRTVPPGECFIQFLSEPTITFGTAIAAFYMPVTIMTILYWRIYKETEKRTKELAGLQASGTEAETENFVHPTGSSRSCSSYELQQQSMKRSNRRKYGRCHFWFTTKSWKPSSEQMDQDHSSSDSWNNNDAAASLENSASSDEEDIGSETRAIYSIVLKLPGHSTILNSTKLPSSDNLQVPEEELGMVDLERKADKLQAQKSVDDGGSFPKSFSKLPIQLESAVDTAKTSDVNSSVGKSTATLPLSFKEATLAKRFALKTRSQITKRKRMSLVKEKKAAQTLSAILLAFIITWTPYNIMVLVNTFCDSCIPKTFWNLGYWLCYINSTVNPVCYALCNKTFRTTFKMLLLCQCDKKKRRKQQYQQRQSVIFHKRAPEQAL

Substance: Gq heterotrimer: venus-labeled Gαq with unlabeled Gβ1 and Gγ2 (from UniProt P21279;P62873;P59768) (complex)
- unrecovered fraction five minutes after photobleaching: 0.23
